Experimental data from publication PMC4031069 (Nature materials, 2014).

Molecular target: monomeric biotinylated FN7-10 (biotin (biotinylated; site not stated))
Assay: SPR

B1: purified recombinant human αvβ6 integrin (receptor)
chain 1: FNLDVDSPAEYSGPEGSYFGFAVDFFVPSASSRMFLLVGAPKANTTQPGIVEGGQVLKCDWSSTRRCQPIEFDATGNRDYAKDDPLEFKSHQWFGASVRSKQDKILACAPLYHWRTEMKQEREPVGTCFLQDGTKTVEYAPCRSQDIDADGQGFCQGGFSIDFTKADRVLLGGPGSFYWQGQLISDQVAEIVSKYDPNVYSIKYNNQLATRTAQAIFDDSYLGYSVAVGDFNGDGIDDFVSGVPRAARTLGMVYIYDGKNMSSLYNFTGEQMAAYFGFSVAATDINGDDYADVFIGAPLFMDRGSDGKLQEVGQVSVSLQRASGDFQTTKLNGFEVFARFGSAIAPLGDLDQDGFNDIAIAAPYGGEDKKGIVYIFNGRSTGLNAVPSQILEGQWAARSMPPSFGYSMKGATDIDKNGYPDLIVGAFGVDRAILYRARPVITVNAGLEVYPSILNQDNKTCSLPGTALKVSCFNVRFCLKADGKGVLPRKLNFQVELLLDKLKQKGAIRRALFLYSRSPSHSKNMTISRGGLMQCEELIAYLRDESEFRDKLTPITIFMEYRLDYRTAADTTGLQPILNQFTPANISRQAHILLDCGEDNVCKPKLEVSVDSDQKKIYIGDDNPLTLIVKAQNQGEGAYEAELIVSIPLQADFIGVVRNNEALARLSCAFKTENQTRQVVCDLGNPMKAGTQLLAGLRFSVHQQSEMDTSVKFDLQIQSSNLFDKVSPVVSHKVDLAVLAAVEIRGVSSPDHVFLPIPNWEHKENPETEEDVGPVVQHIYELRNNGPSSFSKAMLHLQWPYKYNNNTLLYILHYDIDGPMNCTSDMEINPLRIKISSLQTTEKNDTVAGQGERDHLITKRDLALSEGDIHTLGCGVAQCLKIVCQVGRLDRGKSAILYVKSLLWTETFMNKENQNHSYSLKSSASFNVIEFPYKNLPIEDITNSTLVTTNVTWGIQPAPMPV
chain 2: GCALGGAETCEDCLLIGPQCAWCAQENFTHPSGVGERCDTPANLLAKGCQLNFIENPVSQVEILKNKPLSVGRQKNSSDIVQIAPQSLILKLRPGGAQTLQVHVRQTEDYPVDLYYLMDLSASMDDDLNTIKELGSRLSKEMSKLTSNFRLGFGSFVEKPVSPFVKTTPEEIANPCSSIPYFCLPTFGFKHILPLTNDAERFNEIVKNQKISANIDTPEGGFDAIMQAAVCKEKIGWRNDSLHLLVFVSDADSHFGMDSKLAGIVIPNDGLCHLDSKNEYSMSTVLEYPTIGQLIDKLVQNNVLLIFAVTQEQVHLYENYAKLIPGATVGLLQKDSGNILQLIISAYEELRSEVELEVLGDTEGLNLSFTAICNNGTLFQHQKKCSHMKVGDTASFSVTVNIPHCERRSRHIIIKPVGLGDALELLVSPECNCDCQKEVEVNSSKCHHGNGSFQCGVCACHPGHMGPRCECGEDMLSTDSCKEAPDHPSCSGRGDCYCGQCICHLSPYGNIYGPYCQCDNFSCVRHKGLLCGGNGDCDCGECVCRSGWTGEYCNCTTSTDSCVSEDGVLCSGRGDCVCGKCVCTNPGASGPTCERCPTCGDPCNSKRSCIECHLSAAGQAREECVDKCKLAGATISEEEDFSKDGSVSCSLQGENECLITFLITTDNEGKTIIHSINEKDCPKPPNIP
B1 was tested, and the “kont relative to α5β1” value was about 0.5 fold.
